{
  "source": "patent US8759613B1",
  "about": "“Method of producing a lunasin polypeptide in plants” (University of Louisville Research Foundation, Inc., priority 2009, dated 2014)",
  "origin": "cited, not measured here",
  "conditions": "oral administration; digestion",
  "data": [
    {"substance": "lunasin: polypeptide of 43-44 amino acids from soybean with a C-terminal end of nine consecutive aspartic acid residues (MSKWQHQQDSCRKQLQGVNLTPCEKHIMEKIQGRGDDDDDDDDD; Glycine max)", "values": [
      {"measurement": "orally-administered lunasin degraded", "value": "≤ 95", "unit": "%"}
    ]}
  ]
}
